# B1: murine anti-CD137 antibody BBK2 (BBK2-mIgG1) (antibody, V domains shown)
# VH: QVQLQQPGAELVRPGASVKLSCKASGYTFTSYWINWVKQRPGQGLEWIGNIYPSDSYTNYNQKFKDKATLTVDKSSNTVYMQLNSPTSEDSAVYYCTRNGVEGYPHYYAMEYWGQGTSVTVSS
# VL: DIQMTQTTSALSASLGDRVTIGCRASQDLSNHLYWYQQKPDGTVKLLIYYTSRLHSGVPSRFSGSGSGTDYSLTIRNLEQEDVATYFCQQGYTLPYTFGGGTKLEIK
# notes: Mouse monoclonal IgG1, kappa (Thermo Fisher); also called BBK-mIgG1; murine BBK2
# Legend:
# [1] = target: T1, human CD137 (hCD137) stably over-expressed on Jurkat cells (human, UniProt Q07011 24-255); assay: flow cytometry on Jurkat cells stably over-expressing hCD137; titration of the primary antibody 4 h at 4 °C, secondary anti-mouse AF488, gMFI
# T1 construct: also called 4-1BB; TNFRSF9
# Description: (§1) Jurkat cells (i.e., an immortalized human T lymphocyte cell line) characterized by stable, over-expression of hCD137 were plated at 20,000 cells/well and stained with a titration of primary murine anti-CD137 antibody BBK2 (BBK2-mIgG1) for 4 hours at 4° C. Secondary anti-mouse AF488 stain, at a constant amount, was added for 30 minutes at 4° C. After washing, plates were run on a flow cytometer and binding of BBK2-mIgG1 (and the negative control, i.e., mIgG1) was determined based on geometric mean fluorescence intensity in the AF488 channel.
# [2] = target: T1, human CD137 (hCD137) stably …; assay: flow cytometry on Jurkat cells over-expressing hCD137; antibody titration 4 h at 4 C, anti-mouse AF488 secondary, geometric MFI
# Description: as §1
# T1 sequence (Q07011 24-255 limits assumed): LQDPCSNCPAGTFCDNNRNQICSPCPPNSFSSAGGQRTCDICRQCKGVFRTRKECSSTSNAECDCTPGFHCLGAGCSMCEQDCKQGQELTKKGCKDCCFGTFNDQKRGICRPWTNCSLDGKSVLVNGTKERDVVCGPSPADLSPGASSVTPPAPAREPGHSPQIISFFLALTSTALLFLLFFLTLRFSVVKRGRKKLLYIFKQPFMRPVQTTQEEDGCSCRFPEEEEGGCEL
binder,measurement,setting,value
B1,EC50,[1],0.035 nM
same,EC50,[2],35 µM

# Source: patent publication US20180289832A1 (MAGENTA THERAPEUTICS, published 2018)
